Sequences and labels used below:
B1: B8-IgG1 (antibody, V domains shown)
VH: EVQLVQSGAEVKKPGSSVKVSCKASGGTFSNYGISWVRQAPGQGLEWMGRILPTFGTANSAQKFQGRVTITADESTGTAYMELRSLRSEDTAVYYCAKEGLAFLGYGMDVWGQGTTVTVSS
VL: EIVLTQSPGTLSLSPGERATLSCRASQSVSSYLAWYQQKPGQAPRLLIYDASNRATGIPARFIGSGSGTDFTLTISSLEPEDFAVYFCQQRSNWPLTFGGGTKVEIK
B2: B8-mIgA2 (antibody, V domains shown)
VH: B1 VH
VL: B1 VL
B3: B8-dIgA2 (antibody, V domains shown)
VH: B1 VH
VL: B1 VL
B4: B8-dIgA1 (antibody, V domains shown)
VH: B1 VH
VL: B1 VL
B5: B8-mIgA1 (antibody, V domains shown)
VH: B1 VH
VL: B1 VL

We go through 5 molecules from paper doi:10.1101/2021.10.05.463282 (2021).

This assay addresses recombinant RBD derived from SARS-CoV-2 (Sino Biological) (SARS-CoV-2, ancestral (Wuhan-Hu-1) …, UniProt P0DTC2). Kind of assay: ELISA.
As for B1, the binding result is reported as “binds”.
As for B2, the entry is “binds”.
In the case of B3, the binding result is given as “binds”.
Consider B4, for which the binding result is on record as “binds”.
As for B5, the entry is “binds”.
